“And” between values parts separate entries of the source, which are not always exact repeats. Equal values may be shown once.
B1: CMG2 on CHO CMG2-C4 cells (receptor)
chain: not shown
B2: TEM8 on CHO TEM8-T4 cells (receptor)
chain: not shown

Molecular target: PA-U7 (Bacillus anthracis, UniProt P13423 30-764)

Row | Binder | Kd
1 | B1 | 8 nM and 12 nM
2 | B2 | 25 nM and 35 nM
